Columns and labels:
Experiment in all cases: anti-GFP affinity gel immunoprecipitation and western blot densitometry
mCherry-A123 = details: HEK293T cells co-transfected, lysed at 2 dpt; parent: est. 0.97; read off a plot
mCherry-A171 = details: HEK293T cells co-transfected, lysed at 2 dpt; parent: est. 1.0; read off a plot
mCherry-A44 = details: HEK293T cells co-transfected, lysed at 2 dpt; parent: est. 1.0; read off a plot

Substance	response (relative density (intrabody / Etf-2-GFP)) (mCherry-A123)	response (relative density (intrabody / Etf-2-GFP)) (mCherry-A171)	response (relative density (intrabody / Etf-2-GFP)) (mCherry-A44)
Etf-2 (full-length)–GFP (from UniProt Q2GHK1) Q245A	0.84	0.83	0.25
Etf-2 (full-length)–GFP (from UniProt Q2GHK1) R188A	0.94	0.85	1.1
Etf-2 (full-length)–GFP (from UniProt Q2GHK1) R188A; Q245A	0.1	0.88	0.24
